Experimental data: publication PMC9553925

Key:
[1] = molecular target: Trypanosoma brucei mitochondrial F1Fo ATP synthase (monomer unit of the dimer) (T. brucei (endogenous in procyclic Lister strain 427)) (UniProt P24499); test: cryo-EM structure; ATP synthase dimers purified from T. brucei procyclic mitochondria in GDN with added β-DDM and phospholipids, pH 8.0; consensus dimer 3.2 Å, membrane region 2.7 Å, peripheral stalk 3.7 Å, rotor 3.7 Å, ten rotational substates 3.5–4.3 Å
[2] = molecular target: ATP synthase subunit-c (T. brucei) (T. brucei (endogenous in procyclic Lister strain 427)); test: as above

stoichiometry N [1]	stoichiometry N [2]	Substance
2	–	Trypanosoma brucei mitochondrial F1Fo ATP synthase (monomer unit of the dimer) (from UniProt P24499 1-229) (complex)
–	10	ATP synthase subunit-c (T. brucei) (natural protein)
